The target of assay [1] is ActRIIB L38N/L79R. As to the kind of experiment: SPR; 37 C.
Assay [2] concerns the target ActRIIB F82T. Nature of the assay: SPR; 37 C. In general terms: In SPR one partner is held on a chip, and binding of the other changes the refractive index at the surface.
The target in assay [3] is ActRIIB E50L. As to the kind of experiment: SPR; 37 C.
The target in assay [4] is ActRIIB-G1Fc. Nature of the assay: SPR; 37 C.
The target of assay [5] is ActRIIB V99G. As to the kind of experiment: SPR; 37 C.
The target in the next assay is L79W. As to the kind of experiment: SPR; 25 C.
The target of a further assay is L38Q. As to the kind of experiment: SPR; 25 C.
The next assay has as its target N35E. As to the kind of experiment: SPR; 25 C.
Another assay addresses F82T. Nature of the assay: SPR; 25 C.
The target of a further assay is Q98L. As to the kind of experiment: SPR; 25 C.
Another assay has as its target Q98I. Nature of the assay: SPR; 25 C.
In a further assay the target is N35Q. Nature of the assay: SPR; 25 C.
The next assay addresses Q98K. As to the kind of experiment: SPR; 25 C.
For another assay, the target named is Q98R. Nature of the assay: SPR; 25 C.
Another assay deals with N35F. Nature of the assay: SPR; 25 C.
In a further assay the target is L38R. As to the kind of experiment: SPR; 25 C.
The target of a further assay is Q98V. As to the kind of experiment: SPR; 25 C.
In assay [6] the target is ActRIIB-G1Fc. As to the kind of experiment: SPR; 25 C.
The target of another assay is Q98A. Nature of the assay: SPR; 25 C.
The target of the next assay is L38D. As to the kind of experiment: SPR; 25 C.
The target of the next assay is K55A. As to the kind of experiment: SPR; 37 C.
A further assay concerns the target L79K. As to the kind of experiment: SPR; 37 C.
A further assay addresses K55A/F82I. Nature of the assay: SPR; 37 C.
The target of a further assay is F82K. As to the kind of experiment: SPR; 37 C.
The target in another assay is F82I. Nature of the assay: SPR; 37 C.
Another assay deals with K74A. Nature of the assay: SPR; 37 C.
The target in a further assay is L79K/F82K. Nature of the assay: SPR; 37 C.
Another assay concerns the target K55E. As to the kind of experiment: SPR; 37 C.
Assay [7] addresses ActRIIB-G1Fc. Nature of the assay: SPR; 37 C. This is another data set of the same source.
Assay [8] deals with ActRIIB F82T. Nature of the assay: SPR; 37 C; transient.
The target in assay [9] is ActRIIB L38N/L79R. Nature of the assay: SPR; 37 C. This is another data set of the same source.
In assay [10] the target is ActRIIB F82T. As to the kind of experiment: SPR; 37 C. The source holds these as a separate data set.
Assay [11] concerns the target ActRIIB E50L. As to the kind of experiment: SPR; 37 C. The source holds these as a separate data set.
Assay [12] addresses ActRIIB-G1Fc. As to the kind of experiment: SPR; 37 C. The source holds these as a separate data set.
For assay [13], the target named is ActRIIB V99G. As to the kind of experiment: SPR; 37 C. This is another data set of the same source.

Where two headings read alike, the source gives them in different places.

B1: BMP10 (ligand)
chain: NAKGNYCKRTPLYIDFKEIGWDSWIIAPPGYEAYECRGVCNYPLAEHLTPTKHAIIQALVHLKNSQKASKACCVPTKLEPISILYLDKGVVTYKFKYEGMAVSECGCR
Turning to B1, the Kd came to 0.293 nM with ActRIIB L38N/L79R [1]; 0.0092 nM in the assay with ActRIIB F82T [2]; 0.163 nM with ActRIIB E50L [3]; 0.0409 nM in the assay with ActRIIB-G1Fc [4]; 0.951 nM with ActRIIB V99G [5]; 0.16 nM with L79W. Moreover, the equilibrium dissociation constant (Kd) worked out at 0.089 nM with L38Q; 0.28 nM in the assay with N35E; 0.14 nM with F82T; 0.065 nM with Q98L; 0.21 nM with Q98I; 0.27 nM in the assay with N35Q. The dissociation constant (Kd) in the assay with Q98K is 0.068 nM; in the assay with Q98R, 0.32 nM; with N35F it was 0.22 nM; in the assay with L38R, 0.11 nM; with Q98V, 0.048 nM; in the assay with ActRIIB-G1Fc [6] it was 0.169 nM. Further, the dissociation constant Kd came to 0.21 nM with Q98A; 0.15 nM with L38D; 0.023 nM with K55A; 1.4 nM with L79K; 0.007 nM with K55A/F82I; 0.008 nM with F82K. For the same molecule, the dissociation constant (Kd) was 0.008 nM in the assay with F82I, 0.033 nM with K74A, 0.068 nM with L79K/F82K and 0.014 nM with K55E.

B2: BMP9 (ligand)
chain: SAGAGSHCQKTSLRVNFEDIGWDSWIIAPKEYEAYECKGGCFFPLADDVTPTKHAIVQTLVHLKFPTKVGKACCVPTKLSPISVLYKDDMGVPTLKYHYEGMSVAECGCR
On to B2, for which the Kd with ActRIIB L38N/L79R [1] amounted to 2.13 nM; with ActRIIB E50L [3], 0.103 nM; with ActRIIB-G1Fc [4], 0.0911 nM; with L79W it was 0.11 nM; with L38Q it was 0.033 nM; with F82T it was 0.082 nM. In addition, the dissociation constant (Kd) with Q98L stood at 0.071 nM; with Q98I, 0.059 nM; with Q98K, 0.069 nM; in the assay with Q98R, 0.074 nM; with L38R, 0.05 nM; with Q98V, 0.047 nM. The Kd with ActRIIB-G1Fc [6] came out at 0.059 nM; in the assay with Q98A, 0.043 nM; with L38D, 0.063 nM; with K55A, 0.142 nM; with L79K, 1.1 nM; in the assay with K55A/F82I, 0.134 nM. Further, the Kd with F82I is 0.275 nM; with K74A, 0.36 nM; with K55E it was 0.27 nM; in the assay with ActRIIB-G1Fc [7], 0.037 nM; with ActRIIB F82T [8] it was 6.17 nM.

B3: GDF11 (ligand)
chain: NLGLDCDEHSSESRCCRYPLTVDFEAFGWDWIIAPKRYKANYCSGQCEYMFMQKYPHTHLVQQANPRGSAGPCCTPTKMSPINMLYFNDKQQIIYGKIPGMVVDRCGCS
On to B3, for which the Kd with ActRIIB L38N/L79R [1] is 0.0886 nM; in the assay with ActRIIB F82T [2], 0.0267 nM; in the assay with ActRIIB E50L [3], 0.187 nM; in the assay with ActRIIB-G1Fc [4], 0.01 nM; in the assay with ActRIIB V99G [5], 0.184 nM; with L79W, 0.044 nM. Further, the equilibrium dissociation constant (Kd) with L38Q came out at 0.021 nM; with N35E it was 0.028 nM; with F82T, 0.018 nM; in the assay with Q98L, 0.043 nM; in the assay with Q98I, 0.049 nM; in the assay with N35Q, 0.02 nM. Also, the Kd is 0.037 nM with Q98K; 0.02 nM in the assay with Q98R; 0.017 nM with N35F; 0.007 nM with L38R; 0.033 nM with Q98V; 0.011 nM in the assay with ActRIIB-G1Fc [6]. Also, the Kd amounted to 0.037 nM with Q98A; 0.03 nM in the assay with L38D; 0.026 nM with K55A; 0.14 nM with L79K; 0.09 nM with K55A/F82I; 0.057 nM with F82K. Moreover, the dissociation constant (Kd) in the assay with F82I came out at 0.01 nM; in the assay with K74A, 0.43 nM; in the assay with L79K/F82K it was 1.6 nM; in the assay with K55E it was 0.052 nM; with ActRIIB-G1Fc [7], 0.012 nM.

B4: Activin B (ligand)
chain: GLECDGRTNLCCRQQFFIDFRLIGWNDWIIAPTGYYGNYCEGSCPAYLAGVPGSASSFHTAVVNQYRMRGLNPGTVNSCCIPTKLSTMSMLYFDDEYNIVKRDVPNMIVEECGCA
For B4, the Kd with ActRIIB L38N/L79R [9] was determined as 0.0369 nM; in the assay with ActRIIB F82T [10], 0.012 nM; with ActRIIB E50L [11] it was 0.159 nM; with ActRIIB-G1Fc [12], 0.0085 nM; with ActRIIB V99G [13] it was 0.847 nM.

B5: Activin A (ligand)
chain: GLECDGKVNICCKKQFFVSFKDIGWNDWIIAPSGYHANYCEGECPSHIAGTSGSSLSFHSTVINHYRMRGHSPFANLKSCCVPTKLRPMSMLYYDDGQNIIKKDIQNMIVEECGCS
On to B5, for which the equilibrium dissociation constant (Kd) in the assay with ActRIIB L38N/L79R [9] turned out to be 0.339 nM; with ActRIIB F82T [10], 0.0109 nM; with ActRIIB E50L [11] it was 0.0456 nM; with ActRIIB-G1Fc [12] it was 0.0146 nM; with L79W it was 0.26 nM; with L38Q, 0.2 nM. Besides, the equilibrium dissociation constant (Kd) was found to be 0.8 nM with N35E; 0.22 nM in the assay with Q98L; 0.157 nM with Q98I; 0.32 nM with N35Q; 0.145 nM with Q98K; 0.3 nM with Q98R. Moreover, the dissociation constant (Kd) with N35F came to 0.29 nM; in the assay with L38R it was 0.23 nM; with Q98V, 0.16 nM; with ActRIIB-G1Fc [6], 0.25 nM; with Q98A, 0.155 nM; with L38D it was 0.23 nM. In addition, the dissociation constant (Kd) with K55A stood at 0.046 nM; in the assay with L79K it was 0.13 nM; with K55A/F82I, 0.047 nM; in the assay with F82K, 0.093 nM; with F82I, 0.078 nM; in the assay with K74A, 0.034 nM. Also, the figures for the Kd in the assay with L79K/F82K, with K55E and in the assay with ActRIIB-G1Fc [7] were 0.64 nM, 0.064 nM and 0.047 nM, respectively.

One may read the Kd as the equilibrium constant for the complex coming apart. Lower therefore signals higher affinity.
